From PMC8593154 come the findings set out here.

Assay [1] concerns the target γB2ΔICD-EC5-Venus (mouse) (UniProt Q91XX7). Kind of assay: FRET or BRET; acceptor photobleaching at cell adhesion sites of co-cultured HEK293T cells individually expressing donor (mTQ2) and acceptor (Venus) constructs; trans interaction across cells. (Bioluminescence resonance energy transfer reports proximity on the nanometre scale.)
Assay [2] concerns the target γB2ΔICD-EC5-VenusΔN3C9-P3 (mouse) (UniProt Q91XX7). The description is as above.

In the case of “γB2ΔICD-EC1-mTQ2 (from UniProt Q91XX7 1-738) (receptor)”, the FRET efficiency in assay [1] is 14.1%. “γB2ΔICD-EC1-G4S-mTQ2ΔC6 (from UniProt Q91XX7 1-738) (receptor)” yielded an FRET efficiency in assay [2] of 27.4%.
